Assay: protease stability score; higher = more stable; yeast display proteolysis, trypsin and chymotrypsin;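 also: log10 excess protease needed over predicted unfolded state with 0 meaning unfolded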

| Sequence | protease stability score |
| --- | --- |
| DEDHDVRVAENLLEAIRTGNEDEVTRLADENAELEIGDHRYHGREQVSSAAKRINDRADDISINEVHYTGDKLSVQMQMNVNGKNIVVDVVVVAHNGRVKTVRFQYTSEEDFKKFES | 0.538 |
| DEDHEAQRFFDHFEEVVQTGDPDQAKQLIDKNATAKYGDQEYHGWEDVHKHWLRLRRQADHIKFEVDDVRATNGRYEIQFVVIIDTNGNENTRRYRLQAQEDNGRLRVQNLTQQ | 1.49 |
| DEDHESRVVELLEEIVRKGDPDEVRRQADPDARVDYGDKRLHGRDFRKAAKIIEEMRVDHQQFTTYKTHNGRAQMLVTVEHNGERRDIQIIVHYRGDKMKEMRFDTG | -0.224 |
| DEDHIKTHAEELMNALSRGDEKRFVDLVDPNARFRIGDKEYKGSEQLHTLMREIHTEVDHIEVRHLRVRNGQVQATIRYDINGKTRSMTIHFEVENGRVKHMEVSSQ | 1.3 |
| DEDHKAREMMRRWEHNWRTGDPNKLANQFDPNATWDVGDHTIKGREQYAEQIKRNMEQADDVHITVKDVKREGETIVVRFHDVQNHNGQNRVTIVNARFFDDNGSFVMVSFKQE | -0.321 |
| DEDHLHRLVKEMVKVLQQGDPDRFMELADKDATAVIGDKRFHGRTQARKAVKEFTDTVDHIRIKTFNAHGDKVTIVVRLDHNGKNAILRIEFQVDNGRFKEVVFDPDHLQDLRR | 0.071 |
| DEDHLKDANRRVVHALEHGDPDEFMNMADKDVQIEIGDTVVEGSHKLKEWAEDLHNRVDHIEILKVDLQGDTLNLNVRMRSNGHNRNAVLHVRVHNGKIQSLRMKDN | 0.55 |
| DEDHLKKFVSDLQHNSHERLSKQADENAEMEVGNKTYSGREQFSHFAQQQYHRADHFTIDRVEIRNGHITLEAVMVVDGHKIRFSAHAELHNGRLKFYVMKATNEDLVRQMNRLNN | 0.701 |
| DEDHLRKLKEYVKNYNKGDPDKLDEYLDPNVRINVGDHTVHGMDEHNKQAEERTRNMRIQLRRVDVKARNGQLKATINAEAEVNGRPATLHADITVKMHNGKVKNIHVRMPEDYKREREK | 0.008 |
| DEDHMRTLIQRFIEAVQKGDEEQIKRLADPNARMRVGEREIHGREEIAKEIKDIRDQVDHINIRTWSFHNGEAHLEVEYNHNGQHRTMKLRIVVRNGKLQELEWRKG | 2.39 |
| DEDHNRRLAHTIVEILRTGDPDKMNEQLDPNARAHYGDHEIHGRENVAKMVKELHDRVDHFTVKTYDADGDHITIELVMKVNGRNVEMTVVVRVRNGRLVDLRYRYTSEEQEKTEKE | 2.12 |
| DEDHNRRVAKRFIEAVLSGDPEQAKRNADKHVKLQVGDKEYRGRDDLKTWIEQVSTRADHNQIHSMSVSGNRMNVDVKFNHNGRRERTVIRVEVENGKVKKVEVHSG | 0.975 |
| DEDHQAEKIFRDLVEAFKNGDEKRAEELFDPNARLQYGDKTYHGRKAASRLVSHVRTEFDHVDWQIKSVTRTGDKIDIDVDATADHNGHQDKFKIIITLKVTNGKAVLKEVRFK | 1.94 |
| DEDHRERLANHAVEAFQDGDPQQMEELADEDARAEVGDKELTGRERISKMVKTIADNVDHIELKSYEKTGDTVRFHMVLDDNGKQKRLVLVVRIHNGRLKELRIQQS | 1.53 |
| DEDHVQDKAEDLARAIQRGDEDRMNELFDENVKVQVGDKTIHGRENVVDHMREQNEQADRIEIKSITATGDKIRIEMVVVHNGQNTHVVFEVKWENGKIKHMTQKTE | 1.94 |
| DEDINKMVKEFIRNMQNGNHSRLAQLADPNARVQIGDKTLHGREDLERHVRELTERSRVEYKSVDVKVHNGRAHLHLDVVVHHNGRPQRSRVQAVFTAQGDKIKDIRVESNQ | 0.116 |
| DEDIRRHVKEFIEALRTGNEDQLRTLADKNVRFEYGDKEIHGRETYAKHVKKLKEESSIEIKDYKVTAQGNTVSAKIRQVVNHNGKPQHHVVILQAVFHNGKLKEMRTKDDG | -0.26 |
| DEDITEAVRRLEKAREDGDPNKVRELLPEDARAQYGDKTYHGRDEVAKYRETEMKQMTVQMNIRSVENHNGRADIEFEVTREHNGKPTHDHNRATILAHNGKIKVIEIHSTK | -0.422 |

| Sequence | protease stability score |
| --- | --- |
| DEDKAKEFMRKALHILLEGDPDKFVRMADKDAHIQVGEHTVHGREQVRKFIQELQDKVDHNDVVDYEVRPNHANIEFQMNVNGRTVRMRVRLEFKNGKFKRATFDPDDVRKLHT | 1.33 |
| DEDKARRLAEKLFEYMMKGKKDEAKKFLDPDVRYEYVDETVEGPKVAEHVVRKIRKLGMKVETKEMEIRGDKARAVFVYRNGDNQVETTVEAQYEGDKLKEVRVELTDEVKKQVTQG | 0.804 |
| DEDKARRVMEKLFKIVKNGNKDEMKKMGKPNVQYTYVDKRYEGEEAAKKDVEIDKEVGARVQERELEVKGDTVKAVFQYQQGDTTVQTHVEAHYEGDKVKEVKVELTEEVQKIVEQG | -0.248 |
| DEDKEAEKLVKEMQENQRQGDEEKWANLFDEDAHFRIGDKHLHGRQDLQDNVRKWRHNYDHLSVRMKDLKHDGDKARLHVVITQRHNGKNDSMTVDIVIVKQNGRVRIKNFQAP | 0.513 |
| DEDKEAKKAIDDWKKIIDTNDEDQARRMFDPNAKVTIGDKTYHGREQASTLFHQLMKRFDHMSFHVDKVRVHNGQVDAVVTARFNHNGRTEEMRLRFRFDDHNGQLVIVQIDWE | 1.35 |
| DEDKEAREIAKKIARDLNRGNQEEVVKQFDPNVRLNIGDKEVTGREEVRKEVKKVQQKFDHADIRIRDYRSEGDSANLDFYLTLTHNGRHDKRRWTLHLENHNGRYIVKHVQHN | 0.028 |
| DEDKEDRVRTWVEAQKTGDPDKAKENADPNVRVEYGDKTIHGMSEIVKHIKREKHESRRTIDSYSVSASGDHITVRIDMHVKHDGQPRRKDYTETIVIRNGKIRHIKRRDDK | 0.36 |
| DEDKEDRVVKTFLTAVRTGDPHTARNMLDENARVHIGEKNFHGKERASEAIKEFRDQVDEVHIRTIKVRGDRFNIDMTLHFNGKNADLTVNVRVHNGKIQDVQFDPDQMQHLQG | 0.86 |
| DEDKEIRKFIKNNKDILKNGDPREYVRQMDPNAKMQYGDKQVRGNDQLERHLHTKLKRIDSQSVDFKDVDLKGDKIRLRARRTYQFNGRTSSEEFVVVMTFTNGQARVHKINYK | 0.103 |
| DEDKEKKINKDIADAWQNGDEQQMQKQIPPEVRIQVGDKTVHGREHIHKWMRRWRERVDHLQLKDMTAHNGNMRIKFVIRHNGRQDVRQVHIQVDNGTVHTASFDTE | 0.43 |
| DEDKEQELAHHIISIIQTGNPDSFMNMADPNAKVNIGDTRLRGREQIVHFYREQFRQADNREVKDVRAHNGRITIDAVRNINGRNERYVVDIQIENGKATEINVRHT | 0.045 |
| DEDKHAHELAKKLQKVWEEGAEEKQQELVDEDDRKNIGEHTYNGEEQLRRDLDKLRKDADHVDMKLKQIRFQGDKARIDMVVSQTVNGKRNTDRFTVEARLNNGRLRIKQVTKN | 0.813 |
| DEDKHAKRVMENLTRAMNQGDKRRAADMVDPNVRLVIGDKEYHGRHQFRRAIKELVDRADHIEIDVRDVKTKNGRVQAHAHVEATYNGKKNDFKMVAEVEVQGENVVVHQITLK | 1.13 |
| DEDKHAQDHMDQLTRLRKHGNFEKLANMADEDVEVHYGDKQVHGREQVVKTIKSEADDVDHFDVKVQEYHVQGDHIHVVNEFTLERNGQYRTDEQQFTVQITNGSIRIKNMTKK | -0.475 |
| DEDKHVHRAFEEMLTVMEKGNEDEVKRLVDKDVRVHIGDKSYRGRTNVAKQIVDWARRADHIEIEVTEIDIQGDQVTMRATAHATHNGKTQSYDFTIILRIENGRAVIHSWHVS | 0.923 |
| DEDKKADEFMKRWIDNLQNGNEDELRKLIDPNARLDIGDKTLHGREDIVHHLSETLKRVDHLEIRVEHIEVQGDKATFVYHITMRTNGRTHSSEVQFEAEEHNGNLIIKSIHER | 1.57 |
| DEDKKKHDLIHTFLTLQHNGDFKQLARMFDPNAKVRVGDKDIRGREQIEKMFEKVRESVDRVSVSLTHMDNHGDKVRMEARVTQHVNGRNHDFTITITFRQVGDKVRASHQSVS | 0.584 |
| DEDKLDHLARKAAEIMVQGDPDKFRDMFDPNAKLRYGDKELRGREEADKAIEEMQKRVDSSDVEDITAHNGRANAVLVLNHNGRHKRFVLVVDVRNGRATKASMHDD | -0.062 |

From the NTF2 design screens of Basanta et al. (2020)
